Measured values reported in PMC5036006.

What was measured:
Experiment in all cases: co-immunoprecipitation from transfected HEK293T
Conditions in all cases: reference: wild-type parafibromin; sites Y290,Y293,Y315
β-catenin = β-catenin (UniProt P35222)
Gli1 = Gli1 (UniProt P08151)
[1] = molecular target: Notch intracellular domain (NICD) intracellular domain, 1744-2183 (UniProt Q01705)

Measured: binding against the reference

parafibromin (from UniProt Q6P1J9) PR-parafibromin Y290/293/315F
stronger: β-catenin | Gli1 | [1]
